B1: CDC14A (parent)
chain: LWVQGDIFRSKLKNRPSSEGSINK

Variants of: B1
Experiment: protein stability index of a GFP-peptide fusion (GPS, HEK-293T) (PSI 1-6); higher = more stable
Details: c terminus: a fixed tail appended
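Further: lentivirally expressed fusions sorted by FACS into six bins by GFP to DsRed ratio, PSI derived from sequencing read proportions per bin multiplied by bin number.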

Row | Variant | protein stability index
1 | LWVQGDIFRSKFKNRPSSEGSINK | 2.29
2 | LWVQGDIFRSKGKNRPSSEGSINK | 2.83
3 | LWVQGDIFRSKAKNRPSSEGSINK | 3.21
4 | LWVQGDIFRSKIKNRPSSEGSINK | 2.8
5 | LWVQGDIFRSKQKNRPSSEGSINK | 2.92
6 | LWVQGDIFRSKSKNRPSSEGSINK | 2.89
7 | LWVQGDIFRSKRKNRPSSEGSINK | 2.22
8 | LWVQGDIFRSKEKNRPSSEGSINK | 3.51
9 | LWVQGDIFRSKHKNRPSSEGSINK | 2.71
10 | LWVQGDIFRSKTKNRPSSEGSINK | 3.17
11 | LWVQGDIFRSKDKNRPSSEGSINK | 2.83
12 | LWVQGDIFRSKPKNRPSSEGSINK | 3.09
13 | LWVQGDIFRSKKKNRPSSEGSINK | 3.16
14 | LWVQGDIFRSKMKNRPSSEGSINK | 2.41
15 | LWVQGDIFRSKCKNRPSSEGSINK | 3.03
16 | LWVQGDIFRSKVKNRPSSEGSINK | 2.36
17 | LWVQGDIFRSKNKNRPSSEGSINK | 2.82
18 | LWVQGDIFRCKLKNRPSSEGSINK | 2.3
19 | LWVQGDIFRDKLKNRPSSEGSINK | 3.07
20 | LWVQGDIFRTKLKNRPSSEGSINK | 2.45
21 | LWVQGDIFRPKLKNRPSSEGSINK | 2.27
22 | LWVQGDIFRHKLKNRPSSEGSINK | 2.48
23 | LWVQGDIFRFKLKNRPSSEGSINK | 2.05
24 | LWVQGDIFRQKLKNRPSSEGSINK | 3.37

Row | Variant | protein stability index
25 | LWVQGDIFRGKLKNRPSSEGSINK | 3.17
26 | LWVQGDIFREKLKNRPSSEGSINK | 2.44
27 | LWVQGDIFRKKLKNRPSSEGSINK | 2.35
28 | LWVQGDIFRIKLKNRPSSEGSINK | 2.31
29 | LWVQGDIFRWKLKNRPSSEGSINK | 1.54
30 | LWVQGDIFRMKLKNRPSSEGSINK | 2.49
31 | LWVQGDIFRAKLKNRPSSEGSINK | 2.29
32 | LWVQGDIFRLKLKNRPSSEGSINK | 3.46
33 | LWVQGDIFRNKLKNRPSSEGSINK | 2.48
34 | LWVQGDIFRRKLKNRPSSEGSINK | 3.23
35 | LWVQGDIFRVKLKNRPSSEGSINK | 2.92
36 | LWVQGDIFRYKLKNRPSSEGSINK | 3.11
37 | LWVQGDAFRSKLKNRPSSEGSINK | 3.29
38 | LWVQGDCFRSKLKNRPSSEGSINK | 3.09
39 | LWVQGDPFRSKLKNRPSSEGSINK | 3.15
40 | LWVQGDWFRSKLKNRPSSEGSINK | 1.71
41 | LWVQGDDFRSKLKNRPSSEGSINK | 3.35
42 | LWVQGDLFRSKLKNRPSSEGSINK | 2.04
43 | LWVQGDKFRSKLKNRPSSEGSINK | 3.54
44 | LWVQGDYFRSKLKNRPSSEGSINK | 2.66
45 | LWVQGDMFRSKLKNRPSSEGSINK | 2.31
46 | LWVQGDEFRSKLKNRPSSEGSINK | 3.71
47 | LWVQGDRFRSKLKNRPSSEGSINK | 2.31
48 | LWVQGDQFRSKLKNRPSSEGSINK | 2.97

Row | Variant | protein stability index
49 | LWVQGDVFRSKLKNRPSSEGSINK | 2.98
50 | LWVQGDNFRSKLKNRPSSEGSINK | 3.82
51 | LWVQGDFFRSKLKNRPSSEGSINK | 2.01
52 | LWVQGDSFRSKLKNRPSSEGSINK | 3.21
53 | LWVQGDGFRSKLKNRPSSEGSINK | 2.83
54 | LWVQGDHFRSKLKNRPSSEGSINK | 3.37
55 | LWVQGDTFRSKLKNRPSSEGSINK | 3.3
56 | LWVQGYIFRSKLKNRPSSEGSINK | 2.45
57 | LWVQGFIFRSKLKNRPSSEGSINK | 1.58
58 | LWVQGPIFRSKLKNRPSSEGSINK | 2.34
59 | LWVQGNIFRSKLKNRPSSEGSINK | 2.83
60 | LWVQGVIFRSKLKNRPSSEGSINK | 1.43
61 | LWVQGWIFRSKLKNRPSSEGSINK | 1.37
62 | LWVQGSIFRSKLKNRPSSEGSINK | 2.28
63 | LWVQGAIFRSKLKNRPSSEGSINK | 2.27
64 | LWVQGLIFRSKLKNRPSSEGSINK | 1.71
65 | LWVQGKIFRSKLKNRPSSEGSINK | 1.74
66 | LWVQGIIFRSKLKNRPSSEGSINK | 2.69
67 | LWVQGCIFRSKLKNRPSSEGSINK | 1.8
68 | LWVQGQIFRSKLKNRPSSEGSINK | 1.99
69 | LWVQGTIFRSKLKNRPSSEGSINK | 1.84
70 | LWVQGMIFRSKLKNRPSSEGSINK | 2.61
71 | LWVQGGIFRSKLKNRPSSEGSINK | 2.64
72 | LWVQGHIFRSKLKNRPSSEGSINK | 2.24

Row | Variant | protein stability index
73 | LWVQGRIFRSKLKNRPSSEGSINK | 1.9
74 | LWVQGEIFRSKLKNRPSSEGSINK | 2.63
75 | LWVQGDIARSKLKNRPSSEGSINK | 3.43
76 | LWVQGDIERSKLKNRPSSEGSINK | 4.43
77 | LWVQGDILRSKLKNRPSSEGSINK | 2.75
78 | LWVQGDIGRSKLKNRPSSEGSINK | 3.01
79 | LWVQGDIIRSKLKNRPSSEGSINK | 2.62
80 | LWVQGDIVRSKLKNRPSSEGSINK | 3.06
81 | LWVQGDIYRSKLKNRPSSEGSINK | 3.25
82 | LWVQGDIDRSKLKNRPSSEGSINK | 3.67
83 | LWVQGDICRSKLKNRPSSEGSINK | 3.14
84 | LWVQGDIKRSKLKNRPSSEGSINK | 3.23
85 | LWVQGDIHRSKLKNRPSSEGSINK | 2.97
86 | LWVQGDIWRSKLKNRPSSEGSINK | 2.51
87 | LWVQGDITRSKLKNRPSSEGSINK | 3.3
88 | LWVQGDIRRSKLKNRPSSEGSINK | 2.92
89 | LWVQGDIQRSKLKNRPSSEGSINK | 3.78
90 | LWVQGDINRSKLKNRPSSEGSINK | 3.01
91 | LWVQGDIMRSKLKNRPSSEGSINK | 2.42
92 | LWVQGDISRSKLKNRPSSEGSINK | 3.34
93 | LWVQGDIPRSKLKNRPSSEGSINK | 4.1
94 | LYVQGDIFRSKLKNRPSSEGSINK | 2.67

— the supplement of paper PMC10567573
